# Measured values taken from patent US20180155451A1 (published 2018).
# Target: T1, FcγRIa (human, UniProt P12314 16-292)
# T1 construct: extracellular domain; also called FcgRI; CD64
# Test: SPR; vs GpH7-B3/GpL16-k0=100
# T1 sequence (P12314 16-292): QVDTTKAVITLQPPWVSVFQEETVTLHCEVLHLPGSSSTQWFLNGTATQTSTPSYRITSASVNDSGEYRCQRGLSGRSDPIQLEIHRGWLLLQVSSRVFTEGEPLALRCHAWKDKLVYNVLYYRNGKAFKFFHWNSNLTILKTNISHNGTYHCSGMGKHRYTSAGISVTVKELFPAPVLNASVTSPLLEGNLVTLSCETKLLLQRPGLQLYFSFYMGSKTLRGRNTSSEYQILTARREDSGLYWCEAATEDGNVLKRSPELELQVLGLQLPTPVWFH
row,Binder,Ho/Con_1a
1,"GpH7-B3 variant L234_10E/GpL16-k0 (antibody, human IgG1, kappa, homodimerized; also called Ho Ab L234_10E; GpH7-B16/GpL16-k0) heavy: not shown light: DIVMTQSPLSLPVTPGEPASISCQASESLVHSNRNTYLHWYLQKPGQSPQLLIYKVSNRFSGVPDRFSGSGSGTDFTLKISRVEAEDVGVYYCSQNTHVPPTFGQGTKVEIERTVAAPSVFIFPPSDEQLKSGTASVVCLLNNFYPREAKVQWKVDNALQSGNSQESVTEQDSKDSTYSLSSTLTLSKADYEKHKVYACEVTHQGLSSPVTKSFNRGEC",79.6 % of control
2,"GpH7-B3 variant L328_10E/GpL16-k0 (antibody, human IgG1, kappa, homodimerized; also called Ho Ab L328_10E) heavy: not shown light: DIVMTQSPLSLPVTPGEPASISCQASESLVHSNRNTYLHWYLQKPGQSPQLLIYKVSNRFSGVPDRFSGSGSGTDFTLKISRVEAEDVGVYYCSQNTHVPPTFGQGTKVEIERTVAAPSVFIFPPSDEQLKSGTASVVCLLNNFYPREAKVQWKVDNALQSGNSQESVTEQDSKDSTYSLSSTLTLSKADYEKHKVYACEVTHQGLSSPVTKSFNRGEC",101 % of control
3,"GpH7-B3 variant P271_02A/GpL16-k0 (antibody, human IgG1, kappa, homodimerized; also called Ho Ab P271_02A) heavy: not shown light: DIVMTQSPLSLPVTPGEPASISCQASESLVHSNRNTYLHWYLQKPGQSPQLLIYKVSNRFSGVPDRFSGSGSGTDFTLKISRVEAEDVGVYYCSQNTHVPPTFGQGTKVEIERTVAAPSVFIFPPSDEQLKSGTASVVCLLNNFYPREAKVQWKVDNALQSGNSQESVTEQDSKDSTYSLSSTLTLSKADYEKHKVYACEVTHQGLSSPVTKSFNRGEC",102 % of control
4,"GpH7-B3 variant L328_14T/GpL16-k0 (antibody, human IgG1, kappa, homodimerized; also called Ho Ab L328_14T) heavy: not shown light: DIVMTQSPLSLPVTPGEPASISCQASESLVHSNRNTYLHWYLQKPGQSPQLLIYKVSNRFSGVPDRFSGSGSGTDFTLKISRVEAEDVGVYYCSQNTHVPPTFGQGTKVEIERTVAAPSVFIFPPSDEQLKSGTASVVCLLNNFYPREAKVQWKVDNALQSGNSQESVTEQDSKDSTYSLSSTLTLSKADYEKHKVYACEVTHQGLSSPVTKSFNRGEC",98.6 % of control
5,"GpH7-B3 variant P238_15Y/GpL16-k0 (antibody, human IgG1, kappa, homodimerized; also called Ho Ab P238_15Y) heavy: not shown light: DIVMTQSPLSLPVTPGEPASISCQASESLVHSNRNTYLHWYLQKPGQSPQLLIYKVSNRFSGVPDRFSGSGSGTDFTLKISRVEAEDVGVYYCSQNTHVPPTFGQGTKVEIERTVAAPSVFIFPPSDEQLKSGTASVVCLLNNFYPREAKVQWKVDNALQSGNSQESVTEQDSKDSTYSLSSTLTLSKADYEKHKVYACEVTHQGLSSPVTKSFNRGEC",99 % of control
6,"GpH7-B3 variant L328_20W/GpL16-k0 (antibody, human IgG1, kappa, homodimerized; also called Ho Ab L328_20W) heavy: not shown light: DIVMTQSPLSLPVTPGEPASISCQASESLVHSNRNTYLHWYLQKPGQSPQLLIYKVSNRFSGVPDRFSGSGSGTDFTLKISRVEAEDVGVYYCSQNTHVPPTFGQGTKVEIERTVAAPSVFIFPPSDEQLKSGTASVVCLLNNFYPREAKVQWKVDNALQSGNSQESVTEQDSKDSTYSLSSTLTLSKADYEKHKVYACEVTHQGLSSPVTKSFNRGEC",99.9 % of control
7,"GpH7-B3 variant L328_03V/GpL16-k0 (antibody, human IgG1, kappa, homodimerized; also called Ho Ab L328_03V) heavy: not shown light: DIVMTQSPLSLPVTPGEPASISCQASESLVHSNRNTYLHWYLQKPGQSPQLLIYKVSNRFSGVPDRFSGSGSGTDFTLKISRVEAEDVGVYYCSQNTHVPPTFGQGTKVEIERTVAAPSVFIFPPSDEQLKSGTASVVCLLNNFYPREAKVQWKVDNALQSGNSQESVTEQDSKDSTYSLSSTLTLSKADYEKHKVYACEVTHQGLSSPVTKSFNRGEC",99.2 % of control
8,"GpH7-B3 variant L234_15Y/GpL16-k0 (antibody, human IgG1, kappa, homodimerized; also called Ho Ab L234_15Y; GpH7-B3-01-15Y/GpL16-k0) heavy: not shown light: DIVMTQSPLSLPVTPGEPASISCQASESLVHSNRNTYLHWYLQKPGQSPQLLIYKVSNRFSGVPDRFSGSGSGTDFTLKISRVEAEDVGVYYCSQNTHVPPTFGQGTKVEIERTVAAPSVFIFPPSDEQLKSGTASVVCLLNNFYPREAKVQWKVDNALQSGNSQESVTEQDSKDSTYSLSSTLTLSKADYEKHKVYACEVTHQGLSSPVTKSFNRGEC",98.9 % of control
9,"GpH7-B3 variant P238_04F/GpL16-k0 (antibody, human IgG1, kappa, homodimerized; also called Ho Ab P238_04F) heavy: not shown light: DIVMTQSPLSLPVTPGEPASISCQASESLVHSNRNTYLHWYLQKPGQSPQLLIYKVSNRFSGVPDRFSGSGSGTDFTLKISRVEAEDVGVYYCSQNTHVPPTFGQGTKVEIERTVAAPSVFIFPPSDEQLKSGTASVVCLLNNFYPREAKVQWKVDNALQSGNSQESVTEQDSKDSTYSLSSTLTLSKADYEKHKVYACEVTHQGLSSPVTKSFNRGEC",98.7 % of control
10,"GpH7-B3 variant P238_06M/GpL16-k0 (antibody, human IgG1, kappa, homodimerized; also called Ho Ab P238_06M) heavy: not shown light: DIVMTQSPLSLPVTPGEPASISCQASESLVHSNRNTYLHWYLQKPGQSPQLLIYKVSNRFSGVPDRFSGSGSGTDFTLKISRVEAEDVGVYYCSQNTHVPPTFGQGTKVEIERTVAAPSVFIFPPSDEQLKSGTASVVCLLNNFYPREAKVQWKVDNALQSGNSQESVTEQDSKDSTYSLSSTLTLSKADYEKHKVYACEVTHQGLSSPVTKSFNRGEC",100 % of control
11,"GpH7-B3 variant P238_03V/GpL16-k0 (antibody, human IgG1, kappa, homodimerized; also called Ho Ab P238_03V) heavy: not shown light: DIVMTQSPLSLPVTPGEPASISCQASESLVHSNRNTYLHWYLQKPGQSPQLLIYKVSNRFSGVPDRFSGSGSGTDFTLKISRVEAEDVGVYYCSQNTHVPPTFGQGTKVEIERTVAAPSVFIFPPSDEQLKSGTASVVCLLNNFYPREAKVQWKVDNALQSGNSQESVTEQDSKDSTYSLSSTLTLSKADYEKHKVYACEVTHQGLSSPVTKSFNRGEC",97.9 % of control
12,"GpH7-B3 variant L328_19Q/GpL16-k0 (antibody, human IgG1, kappa, homodimerized; also called Ho Ab L328_19Q) heavy: not shown light: DIVMTQSPLSLPVTPGEPASISCQASESLVHSNRNTYLHWYLQKPGQSPQLLIYKVSNRFSGVPDRFSGSGSGTDFTLKISRVEAEDVGVYYCSQNTHVPPTFGQGTKVEIERTVAAPSVFIFPPSDEQLKSGTASVVCLLNNFYPREAKVQWKVDNALQSGNSQESVTEQDSKDSTYSLSSTLTLSKADYEKHKVYACEVTHQGLSSPVTKSFNRGEC",99.3 % of control
13,"GpH7-B3 variant P238_08L/GpL16-k0 (antibody, human IgG1, kappa, homodimerized; also called Ho Ab P238_08L) heavy: not shown light: DIVMTQSPLSLPVTPGEPASISCQASESLVHSNRNTYLHWYLQKPGQSPQLLIYKVSNRFSGVPDRFSGSGSGTDFTLKISRVEAEDVGVYYCSQNTHVPPTFGQGTKVEIERTVAAPSVFIFPPSDEQLKSGTASVVCLLNNFYPREAKVQWKVDNALQSGNSQESVTEQDSKDSTYSLSSTLTLSKADYEKHKVYACEVTHQGLSSPVTKSFNRGEC",100 % of control
14,"GpH7-B3 variant P238_10E/GpL16-k0 (antibody, human IgG1, kappa, homodimerized; also called Ho Ab P238_10E) heavy: not shown light: DIVMTQSPLSLPVTPGEPASISCQASESLVHSNRNTYLHWYLQKPGQSPQLLIYKVSNRFSGVPDRFSGSGSGTDFTLKISRVEAEDVGVYYCSQNTHVPPTFGQGTKVEIERTVAAPSVFIFPPSDEQLKSGTASVVCLLNNFYPREAKVQWKVDNALQSGNSQESVTEQDSKDSTYSLSSTLTLSKADYEKHKVYACEVTHQGLSSPVTKSFNRGEC",91.8 % of control
15,"GpH7-B3 variant P271_03V/GpL16-k0 (antibody, human IgG1, kappa, homodimerized; also called Ho Ab P271_03V) heavy: not shown light: DIVMTQSPLSLPVTPGEPASISCQASESLVHSNRNTYLHWYLQKPGQSPQLLIYKVSNRFSGVPDRFSGSGSGTDFTLKISRVEAEDVGVYYCSQNTHVPPTFGQGTKVEIERTVAAPSVFIFPPSDEQLKSGTASVVCLLNNFYPREAKVQWKVDNALQSGNSQESVTEQDSKDSTYSLSSTLTLSKADYEKHKVYACEVTHQGLSSPVTKSFNRGEC",102 % of control

# Next, values leading:
row,Ho/Con_1a,Binder
1,101 % of control,"GpH7-B3 variant P271_11K/GpL16-k0 (antibody, human IgG1, kappa, homodimerized; also called Ho Ab P271_11K) heavy: not shown light: DIVMTQSPLSLPVTPGEPASISCQASESLVHSNRNTYLHWYLQKPGQSPQLLIYKVSNRFSGVPDRFSGSGSGTDFTLKISRVEAEDVGVYYCSQNTHVPPTFGQGTKVEIERTVAAPSVFIFPPSDEQLKSGTASVVCLLNNFYPREAKVQWKVDNALQSGNSQESVTEQDSKDSTYSLSSTLTLSKADYEKHKVYACEVTHQGLSSPVTKSFNRGEC"
2,101 % of control,"GpH7-B3 variant P271_13S/GpL16-k0 (antibody, human IgG1, kappa, homodimerized; also called Ho Ab P271_13S) heavy: not shown light: DIVMTQSPLSLPVTPGEPASISCQASESLVHSNRNTYLHWYLQKPGQSPQLLIYKVSNRFSGVPDRFSGSGSGTDFTLKISRVEAEDVGVYYCSQNTHVPPTFGQGTKVEIERTVAAPSVFIFPPSDEQLKSGTASVVCLLNNFYPREAKVQWKVDNALQSGNSQESVTEQDSKDSTYSLSSTLTLSKADYEKHKVYACEVTHQGLSSPVTKSFNRGEC"
3,100 % of control,"GpH7-B3 variant P271_04F/GpL16-k0 (antibody, human IgG1, kappa, homodimerized; also called Ho Ab P271_04F) heavy: not shown light: DIVMTQSPLSLPVTPGEPASISCQASESLVHSNRNTYLHWYLQKPGQSPQLLIYKVSNRFSGVPDRFSGSGSGTDFTLKISRVEAEDVGVYYCSQNTHVPPTFGQGTKVEIERTVAAPSVFIFPPSDEQLKSGTASVVCLLNNFYPREAKVQWKVDNALQSGNSQESVTEQDSKDSTYSLSSTLTLSKADYEKHKVYACEVTHQGLSSPVTKSFNRGEC"
4,104 % of control,"GpH7-B3 variant Q295_02A/GpL16-k0 (antibody, human IgG1, kappa, homodimerized; also called Ho Ab Q295_02A) heavy: not shown light: DIVMTQSPLSLPVTPGEPASISCQASESLVHSNRNTYLHWYLQKPGQSPQLLIYKVSNRFSGVPDRFSGSGSGTDFTLKISRVEAEDVGVYYCSQNTHVPPTFGQGTKVEIERTVAAPSVFIFPPSDEQLKSGTASVVCLLNNFYPREAKVQWKVDNALQSGNSQESVTEQDSKDSTYSLSSTLTLSKADYEKHKVYACEVTHQGLSSPVTKSFNRGEC"
5,102 % of control,"GpH7-B3 variant P271_06M/GpL16-k0 (antibody, human IgG1, kappa, homodimerized; also called Ho Ab P271_06M) heavy: not shown light: DIVMTQSPLSLPVTPGEPASISCQASESLVHSNRNTYLHWYLQKPGQSPQLLIYKVSNRFSGVPDRFSGSGSGTDFTLKISRVEAEDVGVYYCSQNTHVPPTFGQGTKVEIERTVAAPSVFIFPPSDEQLKSGTASVVCLLNNFYPREAKVQWKVDNALQSGNSQESVTEQDSKDSTYSLSSTLTLSKADYEKHKVYACEVTHQGLSSPVTKSFNRGEC"
6,102 % of control,"GpH7-B3 variant P271_07I/GpL16-k0 (antibody, human IgG1, kappa, homodimerized; also called Ho Ab P271_07I) heavy: not shown light: DIVMTQSPLSLPVTPGEPASISCQASESLVHSNRNTYLHWYLQKPGQSPQLLIYKVSNRFSGVPDRFSGSGSGTDFTLKISRVEAEDVGVYYCSQNTHVPPTFGQGTKVEIERTVAAPSVFIFPPSDEQLKSGTASVVCLLNNFYPREAKVQWKVDNALQSGNSQESVTEQDSKDSTYSLSSTLTLSKADYEKHKVYACEVTHQGLSSPVTKSFNRGEC"
7,101 % of control,"GpH7-B3 variant P271_12R/GpL16-k0 (antibody, human IgG1, kappa, homodimerized; also called Ho Ab P271_12R) heavy: not shown light: DIVMTQSPLSLPVTPGEPASISCQASESLVHSNRNTYLHWYLQKPGQSPQLLIYKVSNRFSGVPDRFSGSGSGTDFTLKISRVEAEDVGVYYCSQNTHVPPTFGQGTKVEIERTVAAPSVFIFPPSDEQLKSGTASVVCLLNNFYPREAKVQWKVDNALQSGNSQESVTEQDSKDSTYSLSSTLTLSKADYEKHKVYACEVTHQGLSSPVTKSFNRGEC"
8,102 % of control,"GpH7-B3 variant P271_20W/GpL16-k0 (antibody, human IgG1, kappa, homodimerized; also called Ho Ab P271_20W) heavy: not shown light: DIVMTQSPLSLPVTPGEPASISCQASESLVHSNRNTYLHWYLQKPGQSPQLLIYKVSNRFSGVPDRFSGSGSGTDFTLKISRVEAEDVGVYYCSQNTHVPPTFGQGTKVEIERTVAAPSVFIFPPSDEQLKSGTASVVCLLNNFYPREAKVQWKVDNALQSGNSQESVTEQDSKDSTYSLSSTLTLSKADYEKHKVYACEVTHQGLSSPVTKSFNRGEC"
